The experiment concerns the target human angiotensin converting enzyme 2 (hACE2) (human) (UniProt Q9BYF1).

The substance “His-tagged Delta variant SARS-CoV-2 S1S2 protein (ligand)” returned an Absorbance (λ450 nm), after background correction, Average (absorbance units) of 0.551; an Absorbance (λ450 nm), after background correction, Trial 1 (absorbance units) of 0.538; an Absorbance (λ450 nm), after background correction, Trial 2 (absorbance units) of 0.558; an Absorbance (λ450 nm), after background correction, Trial 3 (absorbance units) of 0.557. This substance also registered an Absorbance (λ450 nm), before background correction, Trial 1 (absorbance units) of 0.578; an Absorbance (λ450 nm), before background correction, Trial 2 (absorbance units) of 0.598; an Absorbance (λ450 nm), before background correction, Trial 3 (absorbance units) of 0.597.
“His-tagged Omicron variant SARS-CoV-2 S1S2 protein (ligand)” yielded an Absorbance (λ450 nm), after background correction, Average (absorbance units) of 0.489; an Absorbance (λ450 nm), after background correction, Trial 1 (absorbance units) of 0.482; an Absorbance (λ450 nm), after background correction, Trial 2 (absorbance units) of 0.49; an Absorbance (λ450 nm), after background correction, Trial 3 (absorbance units) of 0.494. For the same substance, the Absorbance (λ450 nm), before background correction, Trial 1 (absorbance units) was found to be 0.522; the Absorbance (λ450 nm), before background correction, Trial 2 (absorbance units) is 0.53; the Absorbance (λ450 nm), before background correction, Trial 3 (absorbance units) is 0.534.

The values above are taken from patent US20250340890A1.
